Two proteins from patent publication US12338483 can be followed below.

The series concerns the target T1, GzmB/MMP AND-gate protease activity sensor.
T1 chain: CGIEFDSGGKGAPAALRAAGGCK

B1: Tobacco Etch Virus protease (protein)
chain: GESLFKGPRDYNPISSTICHLTNESDGHTTSLYGIGFGPFIITNKHLFRRNNGTLLVQSLHGVFKVKNTTTLQQHLIDGRDMIIIRMPKDFPPFPQKLKFREPQREERICLVTTNFQTKSMSSMVSDTSCTFPSSDGIFWKHWIQTKDGQCGSPLVSTRDGFIVGIHSASNFTNTNNYFTSVPKNFMELLTNQEAQQWVSGWRLNADSVLWGGHKVFMSKPEEPFQPVKEATQLMNELVYSQ
Take B1: the “fluorescent signal in a cleavage assay (AND-gate sensor with GzmB and a second protease)” value is “The sensor produced low signals with the viral proteases compared to MMP8”.

B2: West Nile Virus NS3 protease (protein)
chain: GGVLWDTPSPKEYKKGDTTTGVYRIMTRGLLGSYQAGAGVMVEGVFHTLWHTTKGAALMSGEGRLDPYWGSVKEDRLCYGGPWKLQHKWNGHDEVQMIVVEPGKNVKNVQTKPGVFKTPEGEIGAVTLDYPTGTSGSPIVDKNGDVIGLYGNGVIMPNGSYISAIVQGERMEEPAPAGFEPEML
Consider B2, for which the “fluorescent signal in a cleavage assay (AND-gate sensor with GzmB and a second protease)” value is listed as “The sensor produced low signals with the viral proteases compared to MMP8”.
